One experiment addresses TR4-DR1 (Homo sapiens, UniProt P49116). The following applies: increasing amounts of in vitro translated AR (1, 2, 4 μl).
A further experiment has as its system PR. Briefly: Endogenous PR expression in T47D cells (Northern / Western). Type of experiment: cell-based, human. As to the method:
The method was used as previously described, Lee & Chang. (1996) J. Biol. Chem. 271. 10405-10412, with some modifications. Briefly. 5 μg of pCMV-TR2 was transiently transfected into T47D cells and lysed in RIPA buffer (10 mM sodium phosphate, pH 7.0. 150 mM NaCL, 2 mM EDT A. 1% (w/v) Nonidet P-40, 0.1% (w/v) SDS. 1% (w/v) sodium deoxycholate) with freshly adding proteinase inhibitors. The soluble protein was quantified using the Bio-Rad Protein Assay reagent (Bio-Rad Laboratories) and 50 μg soluble proteins were loaded onto SDS/10% PAGE and then transferred to Immobion-P transfer membrane (Millipore). After the blocking reaction overnight, the membrane was incubated with […] anti-PR polyclonal antibody (H-190. Santa Cruz) in PBS(−) containing 0.1% Skim milk for 2 h at room temperature. The membrane was washed and then incubated in 15 μCi 125I] of protein-A (DuPont NEN)/30 ml of PBS(−) containing 0.1% Skim milk for 1 h at room temperature. The western blots were autoradiographed and quantitated by using Phosphorlmager.
RNA isolation and Northern blot analysis were performed as previously described. Young, et al., J. Biol. Chem. 273,20877-20885 (1998).
Next it was determined if TR2 could repress the ER endogenous target gene expression. PR was chosen because it is well studied as an E2-ER target gene in T47D cells. Misrahi et al., Biochem. Biophys. Res. Commun. 143, 740-748 (1987). […] Cells were then used for RNA isolation (Northern blot analysis) and lysate protein extraction (Western blot analysis). For RNA analysis, total RNAs were isolated, and Northern blots were performed using [32P] labeled PR cDNA probes. The membrane was autoradiographed. For Protein Western blot analysis, cells lysates were prepared and PR proteins were visualized by radioimmunoblot. The membrane was autoradiographed to Phosphorimager and was quantitated by ImageQuant software.

TR4-DR1, sequence (P49116 1-615 isoform P49116-2 N175S/W419R/A428G/K503N/L504W/A613V): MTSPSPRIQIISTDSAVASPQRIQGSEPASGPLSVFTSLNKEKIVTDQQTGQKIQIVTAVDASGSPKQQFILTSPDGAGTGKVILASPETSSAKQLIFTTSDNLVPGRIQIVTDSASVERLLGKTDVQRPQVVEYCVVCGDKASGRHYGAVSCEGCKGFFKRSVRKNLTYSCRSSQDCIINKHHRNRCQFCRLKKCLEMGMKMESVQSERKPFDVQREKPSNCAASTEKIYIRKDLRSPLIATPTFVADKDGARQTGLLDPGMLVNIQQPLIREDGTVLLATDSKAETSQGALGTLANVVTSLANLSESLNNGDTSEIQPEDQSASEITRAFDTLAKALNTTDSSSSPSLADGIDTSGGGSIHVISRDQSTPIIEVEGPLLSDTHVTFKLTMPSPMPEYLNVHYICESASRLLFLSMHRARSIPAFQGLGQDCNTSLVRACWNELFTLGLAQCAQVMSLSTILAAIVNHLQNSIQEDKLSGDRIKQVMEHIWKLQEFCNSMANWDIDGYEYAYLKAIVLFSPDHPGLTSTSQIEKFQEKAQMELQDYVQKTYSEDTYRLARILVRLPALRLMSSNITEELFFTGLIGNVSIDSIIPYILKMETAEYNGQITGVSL
Method for TR4-DR1: EMSA was performed as described previously. […] Briefly, the reaction was performed by incubating the 32P-end labeled DR1 probe with in vitro translated TR4 (1 ml) with or without an increasing amount of AR (1, 2, 4 ml). The EMSA incubation buffer is 10 mM HEPES, pH 7.9, 2% (v/v) glycerol, 100 mM KCl, 1 mM EDTA, 5 mM MgCl, and 1 mM DTT. For the antibody supershifted analysis, 1 ml of monoclonal anti-TR4 antibody (#15) was added to the reaction. […] The radioactive gel was analyzed by autoradiography.
One μl of in vitro translated TR4 protein was incubated with increasing amounts of in vitro translated AR (1 μl, 2 μl, and 4 μl) in EMSA reaction buffer (10 mM HEPES pH 7.9, 2% (v/v) glycerol, 100 mM KCl, 1 mM EDTA, 5 mM MgCl2, and 1 mM DTT) for 15 min. 32P-end labeled DR1 was added into the protein mixture and incubated for 15 min before loading. For the antibody supershift assay, 1 μl of monoclonal anti-TR4 antibody was added to the reaction and applied to a 5% native polyacrylamide gel. The radioactive gel was analyzed by autoradiography.

For the molecule AR: androgen receptor, SEQ ID NO:31, in the experiment with TR4-DR1, the “Specific TR4-DR1 band” value was “decreased”.

B1: TR2: human testicular orphan nuclear receptor 2, 603 amino acids (protein, UniProt P13056 1-603, looked up)
chain: MATIEEIAHQIIEQQMGEIVTEQQTGQKIQIVTALDHNTQGKQFILTNHDGSTPSKVILARQDSTPGKVFLTTPDAAGVNQLFFTTPDLSAQHLQLLTDNSPDQGPNKVFDLCVVCGDKASGRHYGAVTCEGCKGFFKRSIRKNLVYSCRGSKDCIINKHHRNRCQYCRLQRCIAFGMKQDSVQCERKPIEVSREKSSNCAASTEKIYIRKDLRSPLTATPTFVTDSESTRSTGLLDSGMFMNIHPSGVKTESAVLMTSDKAESCQGDLSTLANVVTSLANLGKTKDLSQNSNEMSMIESLSNDDTSLCEFQEMQTNGDVSRAFDTLAKALNPGESTACQSSVAGMEGSVHLITGDSSINYTEKEGPLLSDSHVAFRLTMPSPMPEYLNVHYIGESASRLLFLSMHWALSIPSFQALGQENSISLVKAYWNELFTLGLAQCWQVMNVATILATFVNCLHNSLQQDKMSTERRKLLMEHIFKLQEFCNSMVKLCIDGYEYAYLKAIVLFSPDHPSLENMEQIEKFQEKAYVEFQDYITKTYPDDTYRLSRLLLRLPALRLMNATITEELFFKGLIGNIRIDSVIPHILKMEPADYNSQIIGHSI
modifications: full-length
notes: human testicular orphan nuclear receptor 2, 603 amino acids
As for B1, the “E2-induced PR expression at mRNA and protein levels” value in the experiment with PR (T47D cells and MCF7 cells, Example 2) was “repress”. Besides, in the experiment on PR (T47D cells transfected with pCMV-TR2, 10 nM E2), the “Expression of endogenous PR mRNA” value was “clearly repressed”. Also, the “Endogenous PR expression (Western blot)” value with PR (T47D cells, similar in MCF7) is “repress”.

The values are drawn from patent US20030235860A1, “Interactions between AR, ER, TR2, and TR4” (priority 1999, published 2003).
